Test results as given in the supplement of paper PMC10567573.
± gives the standard deviation.

Experiment: protein stability index of a GFP-peptide fusion (GPS, HEK-293T) (PSI 1-6); higher = more stable
[1] = treatment: DMSO, c terminus: a fixed tail appended
[2] = treatment: MLN4924 1 uM, 8 h, c terminus: a fixed tail appended
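Also: 24-mer peptide tiles fused after GFP, lentivirally expressed, FACS-sorted into six equal bins by GFP/DsRed ratio, decoded by Illumina sequencing, PSI is the read-weighted mean bin number.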

| Sequence | protein stability index [1] | protein stability index [2] | protein stability index (treatment: DMSO, c terminus: native) | protein stability index (treatment: MLN4924 1 uM, 8 h, c terminus: native) |
| --- | --- | --- | --- | --- |
| NYSYRGYGALSSNLQPPASLQTGN [NOL4L] | 3.64 ± 0.2 | 3.8 ± 0.25 |  |  |
| GKDAKTTNGHGGEAAEGKSLGSAL [TRIM29] | 5.36 ± 0.14 | 5.27 ± 0.19 |  |  |
| VNLPISFFRKLLDCCQVSAPNRFF [NLN] |  | 2.62 ± 0.6 |  |  |
| LLDDSKTWWRVRNAANRTGYVPSN [NCK2] | 2.93 ± 0.23 | 2.79 ± 0.15 |  |  |
| SRARSASSPRGMVRVCDLLLKKKP [ANKRD17] | 3.61 ± 0.39 | 3.51 ± 0.4 |  |  |
| AKSVLKERGLKKIRLGIEGYPTYK [BTBD10] | 2.79 ± 0.23 | 2.8 ± 0.44 |  |  |
| MLGLALGGLVVSAASLAGCLGALC [TSPAN10] | 3.15 ± 0.55 | 3.04 ± 0.37 |  |  |
| HGRGTEVLLEEPLPLETARESPSF [ZNF263] | 4.69 ± 0.28 | 4.81 ± 0.25 |  |  |
| EHGPSPGQDTFCQGKADGLYPNPR [CHIT1] | 4.38 ± 0.26 | 4.36 ± 0.53 |  |  |
| VGEKNCTGPPCDRQWTVSDWGPCS [ADAMTSL2] | 3.53 ± 0.3 | 3.32 ± 0.66 |  |  |
| IDGVATTRYSVAGLSPYSDYEFRV [PTPRD] | 2.02 ± 0.24 | 2.02 ± 0.29 |  |  |
| ISSGVVSIWAQNQVENWSAFAPDF [RBBP5] | 2.44 ± 0.3 | 2.4 ± 0.25 |  |  |
| VDAGAEPGRSRMISQEEFARQLQL [LPCAT4] | 4.52 ± 0.27 | 4.5 ± 0.15 |  |  |
| LTEASAHSHPPEIKDQGGAGEGLV [MAP2] | 5.57 ± 0.15 | 5.56 ± 0.2 |  |  |
| VSLGLGQPWHAVMDIESLSVFTEP [FBXO33] | 2.31 ± 0.56 | 1.99 ± 0.26 |  |  |
| ISCVICNDIMAYMFGFFFGRTPLI [CDS2] | 3.31 ± 0.35 | 2.92 ± 0.48 |  |  |
| RERADIGGLMARPEYREWNPELIK [FAM107A] | 4.16 ± 0.12 | 3.8 ± 0.18 |  |  |
| LDTVEEVLSVSKILHIPQVTKLCV [KLHL14] | 2.35 ± 0.48 | 2.79 ± 0.43 |  |  |
| LPTLVPWYFWGETFQNSVFVATFL [SCD] | 3.15 ± 0.076 | 3.09 ± 0.35 |  |  |
| IEGAPEVTMSSLFKHILRTEGAFG [SLC25A25] | 2.31 ± 0.39 | 2.63 ± 0.13 |  |  |
| VTFGNKQKVLGKALSLIRFPLMTI [BTBD1] | 2.4 ± 0.041 | 2.4 ± 0.75 |  |  |
| LQHAVELKPLCGCHSFAAAADGPT [SMAD6] | 3.16 ± 0.21 | 3.17 ± 0.28 |  |  |

| Sequence | protein stability index [1] | protein stability index [2] | protein stability index (treatment: DMSO, c terminus: native) | protein stability index (treatment: MLN4924 1 uM, 8 h, c terminus: native) |
| --- | --- | --- | --- | --- |
| FGGNPRFLSLHRAHLGEEAHKCLE [ZNF263] | 2.47 ± 0.5 | 3.14 ± 0.61 |  |  |
| SEKAANDDHSVRVAREDVRESCPP [CPXM2] | 5.49 ± 0.22 | 5.44 ± 0.061 |  |  |
| TGWARKGLGNTWPGASGSAQSLDR [ATP23] | 4.17 ± 0.26 | 4.09 ± 0.16 |  |  |
| KVKKLKNLKTLDSKPGVYTSYKPY [DENND6A] | 2.66 ± 0.28 | 2.81 ± 0.42 |  |  |
| AVEISDHPGEHEVGEPEFHYIAGA [CPXM2] | 4.82 ± 0.57 | 5.17 ± 0.32 |  |  |
| VSNTPLRTVDGSPMMKAAMYSVEI [PALM] | 2.27 ± 0.4 | 2.42 ± 0.17 |  |  |
| HEVLLCSDLVKAYQRCVSAAHKG [CHCHD6] |  |  | 2.56 ± 0.75 | 2.27 ± 0.45 |
| PNSTKNQSLPKASPVTTSPTAATT [LCOR] | 4.91 ± 0.23 | 5.03 ± 0.26 |  |  |
| SVEEQLSLISGCPNIQEAVEGAMH [CRYL1] | 4.68 ± 0.17 | 4.64 ± 0.15 |  |  |
| SLHDHDGSSGASDQDTLAPLPHPG [DVL3] | 5.33 ± 0.25 | 5.19 ± 0.33 |  |  |
| TNRWSFDGIDRWIKEIDEHAPGVP [RAB40C] | 3.91 ± 0.17 | 3.97 ± 0.22 |  |  |
| KGGEERKAEGGEEDSLGCLTADTK [IRX6] | 5.44 ± 0.25 | 5.52 ± 0.16 |  |  |
| TPSARRNYRIAGARLMRSNYPPPL [C6orf223] | 2.92 ± 0.14 | 3.08 ± 0.22 |  |  |
| ENCERREAFWAEWKDLTLSTRPEE [TCAP] | 4.53 ± 0.097 | 4.68 ± 0.2 |  |  |
| CLVCQASFCELHLKPHLEGAAFRD [TRIM29] | 3.68 ± 0.32 | 3.67 ± 0.43 |  |  |
| GPIQLWQFLLELLSDKSCQSFISW [ETS2] | 2.62 ± 0.5 | 2.73 ± 0.6 |  |  |
| PPRGPLGQGAMFRLPTDSHFPYDL [NEUROD6] | 3.46 ± 0.18 | 3.59 ± 0.38 |  |  |
| LECEINTYRSLLESEDCKLPSNPC [KRT33B] | 4.07 ± 0.11 | 4.25 ± 0.23 |  |  |
| LLVSLVTTVVVFVASMVLGECRQM [CLCN6] | 3.02 ± 0.73 | 3 ± 0.94 |  |  |
| CMVCKKKIGNSAFARYPNGVVVHY [VPS39] | 2.37 ± 0.17 | 2.51 ± 0.41 |  |  |
| TGREMHGKNWSKLCKDCQVIDGRN [TPPP] | 3.14 ± 0.16 | 3.49 ± 0.11 |  |  |
| DTHSWKSELQREMEALAAETNLLL [TEKT4] | 3.25 ± 0.33 | 3.59 ± 0.44 |  |  |

| Sequence | protein stability index [1] | protein stability index [2] | protein stability index (treatment: DMSO, c terminus: native) | protein stability index (treatment: MLN4924 1 uM, 8 h, c terminus: native) |
| --- | --- | --- | --- | --- |
| DKRGETTSASLLNAGLSHTEYQIV [SLC2A12] | 3.69 ± 0.17 | 3.91 ± 0.26 |  |  |
| ECQLTHSHPACPLEFAYYFRPGHL [ZSWIM9] | 2.57 ± 0.036 | 2.59 ± 0.47 |  |  |
| FHYIPGTDILDLENQRENLEQPFL [PLEKHN1] | 2.92 ± 0.58 | 3.09 ± 0.16 |  |  |
| REVEQWFATQTEELNKQVVSSSEQ [KRT33B] | 4.98 ± 0.23 | 4.87 ± 0.17 |  |  |
| ASPMSADRVVAFMDHIRIFQEQVE [NR2F2] | 2.8 ± 0.44 | 3.1 ± 0.29 |  |  |
| TIRGEVMFFKDRFYMRTNPFYPEV [MMP1] | 2.2 ± 0.39 | 2.21 ± 0.12 |  |  |
| EERSPSFGEDYYGPSRSRHRRRSR [CLK3] | 5.32 ± 0.2 | 5.46 ± 0.062 |  |  |
| GRSWPSAPDDSKAQAHRIHIDPEI [PDLIM4] | 4.22 ± 0.33 | 4.31 ± 0.07 |  |  |
| SPLYADPYTPPATSHRRVTDVRGL [PLEKHN1] | 3.76 ± 0.35 | 3.63 ± 0.35 |  |  |
| LELLGASFANDRENYDIIKTYHYL [FEM1B] | 2.32 ± 0.43 | 2.17 ± 0.36 |  |  |
| KEKWWDGQRDRKAEHWKHKKEESG [PBXIP1] | 4.54 ± 0.21 | 4.66 ± 0.52 |  |  |
| LGERRAEPHSLLHLSRLCVRHNLG [SPSB2] | 3.35 ± 0.22 | 3.3 ± 0.23 |  |  |
| DQQNPTLGETPENSNLEEPLNPKP [ZNF449] | 5.6 ± 0.19 | 5.29 ± 0.23 |  |  |
| TLAQFPETLLGDPEKRTQYFDPLR [KCNA4] | 3.5 ± 0.31 | 3.6 ± 0.36 |  |  |
| AACLLQLKGVKQACCEFLESQLDP [KLHL12] | 2.97 ± 0.45 | 2.88 ± 0.33 |  |  |
| YANGGLNYSYRGYGALSSNLQPPA [NOL4L] | 2.49 ± 0.36 | 2.94 ± 0.35 |  |  |
| SVLLGASNADQLMENIGAIQVLPK [KCNAB2] | 3.58 ± 0.095 | 3.6 ± 0.24 |  |  |
| GDSFSHSSNRIRHLRTHTGERPYK [ZNF263] | 4.28 ± 0.14 | 4.62 ± 0.16 |  |  |
| IGRAAGTGFTVNVAWNGPRMGDAD [HDAC6] | 3.02 ± 0.28 | 3.15 ± 0.32 |  |  |
| QISMELAKVNYVKNNICFMSHHQE [SLC2A12] | 2.6 ± 0.16 | 2.41 ± 0.27 |  |  |
| YFFLCQPFREILCKKLHIPLKAQN [P2RY14] | 2.62 ± 0.75 | 1.99 ± 0.25 |  |  |
